Experiment [1] has as its target T1, purified full-length β2 adrenergic receptor (ADRB2) (human, UniProt P07550 1-413).
T1 construct: human β2 adrenergic receptor; further tags may be present; also called full-length ADRB2; source: P. pastoris, solubilized in DDM/CHS, purified (HisTrap)
Description: SPR; competition: 1.1 µM ADRB2 or 0.30 µM CNR2 preincubated at least 1 h with a range of GASP peptide or control peptide, injected over captured GST-tagged central domain of GASP-1; 25°C; endpoint responses 20 s after injection end. The following applies: both partners purified.

For experiment [2], the target named is T2, purified full-length cannabinoid receptor type 2 (CNR2) (human, UniProt P34972 1-360).
T2 construct: human cannabinoid receptor type 2; further tags may be present; also called full-length CNR2; source: P. pastoris, solubilized in DDM/CHS, purified (HisTrap)
Described as above. The following applies: both partners purified.

T2 sequence (P34972 whole entry): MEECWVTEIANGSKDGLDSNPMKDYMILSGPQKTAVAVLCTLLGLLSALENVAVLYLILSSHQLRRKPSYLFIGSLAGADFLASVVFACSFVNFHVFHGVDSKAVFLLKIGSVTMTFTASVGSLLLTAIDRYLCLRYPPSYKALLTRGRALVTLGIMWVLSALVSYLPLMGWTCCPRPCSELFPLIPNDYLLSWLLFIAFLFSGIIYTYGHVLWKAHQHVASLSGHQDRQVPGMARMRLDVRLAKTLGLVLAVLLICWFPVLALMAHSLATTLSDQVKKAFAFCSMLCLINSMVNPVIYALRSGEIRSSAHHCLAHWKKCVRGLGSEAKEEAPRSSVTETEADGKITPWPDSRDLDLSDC

B1: GASP peptide (peptide)
peptide: RVKQEPRFEEEVIIGSWFWAEKEA
notes: 24 amino acids containing the first GASP motif of GASP-2; also called synthetic peptide of 24 amino acids containing the first GASP motif of GASP-2; source: synthetic peptide (Genecust, ≥85% purity)
Regarding B1, the IC50 in experiment [1] and in experiment [2] was approximately 100 µM throughout.

The IC50 is the point on the concentration scale where inhibition reaches its midpoint. Low readings indicate inhibition by little substance, high ones a need for much substance.
